{"source": "paper PMC9473479", "key": {"[1]": {"biological_target": "S40-H StrepII-tagged at its C-terminus (murine SPD scaffold carrying EsxH in the collagen-like region, CRD replaced by the murine CD40L 115-260 ectodomain) (Mus musculus | Mycobacterium tuberculosis | murine) (UniProt P27548)", "assay": "non-reducing SDS-PAGE and Western blot"}, "[2]": {"biological_target": "S40-H StrepII-tagged at its C-terminus (murine SPD scaffold carrying EsxH in the collagen-like region, CRD replaced by the murine CD40L 115-260 ectodomain) (Mus musculus | Mycobacterium tuberculosis | murine) (UniProt P27548)", "assay": "SEC; 50x-concentrated supernatant of LV::S40-H-StrepII-transduced HEK293T cells on Superose 6 HR 10/30, 50 mM phosphate buffer pH 7.5, 150 mM NaCl; calibrated with standard proteins; fractions analysed by Western blot in reducing conditions"}}, "note": "Where “and” joins values, the source holds several entries; their conditions need not be identical. Equal entries are not always repeated.", "data": [{"substance": "S40-H StrepII-tagged at its C-terminus (murine SPD scaffold carrying EsxH in the collagen-like region, CRD replaced by the murine CD40L 115-260 ectodomain) (from UniProt P27548 115-260)", "values": [{"measurement": "stoichiometry N", "setting": "[1]", "value": "2 and 4 and 3"}, {"measurement": "stoichiometry N", "setting": "[2]", "value": "2 and 3 and 4"}]}]}
